Data published in article PMC2699623 (Structure (London, England : 1993), 2009).

Legend:
[1] = biological target: peptide derived from EIAV Gag p9 (equine infectious anemia virus (EIAV)); test: ITC
[2] = biological target: ALIXV, the middle domain (V-domain) of ALIX (monomeric form) (UniProt Q8WUM4); test: SEC-MALS
[3] = biological target: ALIX_(Bro1-V), ALIX lacking the proline rich domain (monomeric form); test: SEC-MALS
[4] = biological target: the molecule itself; test: SEC-MALS

“dimeric ALIXV (from UniProt Q8WUM4 360-702) (complex)” gave a Kd [1] of 8 µM.

For “ALIXV, the middle domain (V-domain) of ALIX (monomeric form) (from UniProt Q8WUM4 360-702) (domain or fragment)”, the stoichiometry N [2] was 2.

Work on “ALIX_(Bro1-V), ALIX lacking the proline rich domain (monomeric form) (domain or fragment)” yielded a stoichiometry N [3] of 2.

B1: ALIX_(Vmut2) (domain or fragment)
chain: PVSVQQSLAAYNQRKADLVNRSIAQMREATTLANGVLASLNLPAAIEDVSGDTVPQSILTKSRSVIEQGGIQTVDQLIKELPELLQRNREILDESLRLLDEEEATDNDLRAKFKERWQRTPSNELYKPLRAEGTNFRTVLDKAVQADGQVKECYQSHRDTIVLLCKPEPELNAAIPSANPAKTMQGSEVVNVLKSLLSNLDEVKKEREGLENDLKSVNFDMTSKFLTALAQDGVINEEALSVTELDRVYGGLTTKVQESLKKQEGLLKNIQVSHQEFSKMKQSYKKANLREEVLKNLATAYDNFVELVANLKEGTKFYNELTEILVRFQNKCSDIVFARKTER
For B1, the “stoichiometry N” value [4] was 2.
